What was measured:
in vivo = assay: in vivo; set-up: species or system BALB/c (nu/nu) nude mice; settings: BALB/c (nu/nu) nude, mouse, iv, total radioactivity
Protocol: (§1) When tumour volumes reached ~120 mm^3, animals were divided into five groups with seven animals in each group for both H69 and CA20948 tumour-bearing animals. […] At 10, 30, 60 and 120 min post injection (p.i.), animals in the four groups were euthanized and tissues and organs of interest (including tumour, kidney, pancreas, spleen, liver, muscle, blood, femur, femur marrow and adrenals) were collected and counted using a gamma counter (Wallac Wizard 3, PerkinElmer, USA). […] The animals of the control group were euthanized 60 min p.i.; tissues and organs of interest were harvested and counted using a gamma counter. Data was expressed in mean percentage of total injected radioactivity per gram tissue (%IA/g) ± SD.

[1] = tested on: CA20948 tumour-bearing mice; assay: in vivo; set-up: species or system BALB/c (nu/nu) nude mice; settings: mouse, iv
Protocol: as §1

H69 tumour-bearing mice = assay: in vivo; set-up: species or system BALB/c (nu/nu) nude mice; settings: mouse, iv
Protocol: as §1

[2] = tested on: H69 (human small cell lung carcinoma) tumours; assay: Targeted alpha therapy: tumour growth and survival, H69 tumours; assay type: in vivo, human tumour cells in BALB/c (nu/nu) nude mice; settings: for Mean time to reach a tumour volume of 2000 mm^3: i.v. 2–4 MBq/0.3 nmol ^213Bi-DOTATATE or 0.3 nmol unlabelled DOTATATE (control) on three consecutive days, mean ± SD; for Median survival: follow-up 90 days after treatment
Protocol: (§2) All animal studies were in agreement with the Animal Welfare Committee requirements of Erasmus MC and conducted in accordance with accepted guidelines. Male 6–8-week-old BALB/c (nu/nu) nude mice were obtained from Charles River (Kißlegg, Germany). Subcutaneous tumours were established in mice by inoculation of approximately 5 × 10^6 cells (CA20948 or H69), suspended in 200 μL sterile culture medium Hanks’ balanced salt solution (HBSS) in the case of CA20948 cells. Three days after inoculation of CA20948 cells, a tumour with a tumour size ~50 mm^3 (used for the “smaller” tumour-size group) was reached, and 2 weeks after inoculation, a tumour size ~200 mm^3 (used for the “larger” tumour-size group) was reached. For H69 cells, 200 μL, containing 1/3 Matrigel and 2/3 HBSS medium (Gibco, Life Technologies), was used. The cells were injected subcutaneously (s.c.) into the right flank of the mice. One week after inoculation of tumour cells, tumours with a volume of ~50 mm^3 (used for the smaller tumour-size group) could be detected, and after 3 weeks, tumour volumes reached ~200 mm^3 (used for the larger tumour-size group). Tumour volumes were estimated using a calliper.
(§3) Tumour cells were inoculated into the right flank of the mice, and the tumours were allowed to grow until tumour volumes of approximately 50 and 200 mm^3 were reached, respectively. […] The control group (H69-bearing animals: small tumour n = 10, large tumour n = 9; CA20948-bearing animals: small tumour n = 5, large tumour n = 5) received i.v. via the tail vein three times 0.3 nmol/200 μL of unlabelled DOTATATE for three consecutive days.
(§4) All animals were followed for 90 days after treatment. The behaviour and the health status of the animals were observed daily, and the weight of the animals and the tumour volumes were monitored twice a week.

[3] = tested on: CA20948 (rat pancreatic tumour) tumours; assay: Targeted alpha therapy: tumour growth and survival, CA20948 tumours; assay type: in vivo, rat tumour cells in BALB/c (nu/nu) nude mice; settings: for Mean time to reach a tumour volume of 2000 mm^3: i.v. 2–4 MBq/0.3 nmol ^213Bi-DOTATATE or 0.3 nmol unlabelled DOTATATE (control) on three consecutive days, mean ± SD; for Median survival: follow-up 90 days after treatment
Protocol: as §2, §3, §4

kidney = settings: mouse, in vivo
[4] = in the absence of L-lysine; ref manuscript in preparation; cited from earlier work
Description: In patients, the maximum tolerated dose in kidney is postulated to b ...

[5] = 3.8 MBq/0.3 nmol/200 uL, Uptake, Adrenal
[6] = 3.8 MBq/0.3 nmol/200 uL, Uptake, Blood
[7] = 3.8 MBq/0.3 nmol/200 uL, Uptake, Femur
[8] = 3.8 MBq/0.3 nmol/200 uL, Uptake, Kidney
[9] = 3.8 MBq/0.3 nmol/200 uL, Uptake, Liver
[10] = 3.8 MBq/0.3 nmol/200 uL, Uptake, Muscle
[11] = 3.8 MBq/0.3 nmol/200 uL, Uptake, Tumour
[12] = H69 small tumours, after treatment

C[C@@H](O)[C@H](NC(=O)[C@@H]1CSSC[C@H](NC(=O)[C@@H](Cc2ccccc2)NC(=O)CN2CCN(CC(=O)O)CCN(CC(=O)O)CCN(CC(=O)O)CC2)C(=O)N[C@@H](Cc2ccc(O)cc2)C(=O)N[C@H](Cc2c[nH]c3ccccc23)C(=O)N[C@@H](CCCCN)C(=O)N[C@@H]([C@@H](C)O)C(=O)N1)C(=O)O [^213Bi-DOTATATE, ^213Bi-[DOTA^0, Tyr^3]-octreotate, metal not drawn]
tissue uptake at 10 min (in vivo; 2.1 MBq/0.3 nmol/200 uL, Uptake, Kidney): 51.5 ± 16.6 %ID/g
tissue uptake at 2 h (in vivo; 2.1 MBq/0.3 nmol/200 uL, Uptakes in other organs (other than tumour and kidney)): < 2 %ID/g
tissue uptake at 2 h (in vivo; 3.8 MBq/0.3 nmol/200 uL, Uptake in all other organs (other than tumour and kidney)): < 2 %ID/g
tissue uptake at 0.5 h (in vivo; [5]): 2 ± 0.6 %ID/g
tissue uptake at 1 h (in vivo; [5]): 0.9 ± 0.4 %ID/g
tissue uptake at 2 h (in vivo; [5]): 0.7 ± 0.4 %ID/g
tissue uptake at 10 min (in vivo; [6]): 8.1 ± 1.8 %ID/g
tissue uptake at 0.5 h (in vivo; [6]): 2.3 ± 1.1 %ID/g
tissue uptake at 1 h (in vivo; [6]): 0.6 ± 0.2 %ID/g
tissue uptake at 2 h (in vivo; [6]): 0.1 ± 0.06 %ID/g
tissue uptake at 0.5 h (in vivo; [7]): 1.5 ± 0.4 %ID/g
tissue uptake at 1 h (in vivo; [7]): 1 ± 0.5 %ID/g
tissue uptake at 2 h (in vivo; [7]): 0.4 ± 0.4 %ID/g
tissue uptake at 10 min (in vivo; [8]): 44 ± 9.6 %ID/g
tissue uptake at 0.5 h (in vivo; [8]): 28.5 ± 3.7 %ID/g
tissue uptake at 1 h (in vivo; [8]): 26.2 ± 2.6 %ID/g
tissue uptake at 2 h (in vivo; [8]): 25 ± 3.8 %ID/g
tissue uptake at 0.5 h (in vivo; [9]): 0.9 ± 0.09 %ID/g
tissue uptake at 1 h (in vivo; [9]): 0.4 ± 0.06 %ID/g
tissue uptake at 2 h (in vivo; [9]): 0.3 ± 0.05 %ID/g
tissue uptake at 0.5 h (in vivo; [10]): 1.1 ± 0.2 %ID/g
tissue uptake at 1 h (in vivo; [10]): 1 ± 1.4 %ID/g
tissue uptake at 2 h (in vivo; [10]): 0.5 ± 0.4 %ID/g
tissue uptake at 10 min (in vivo; 3.8 MBq/0.3 nmol/200 uL, Uptake, Pancreas): 3.2 ± 0.3 %ID/g
tissue uptake at 10 min (in vivo; [11]): 7.5 ± 2.2 %ID/g
tissue uptake at 0.5 h (in vivo; [11]): 9.8 ± 2.4 %ID/g
tissue uptake at 1 h (in vivo; [11]): 9.8 ± 2.3 %ID/g
tissue uptake at 2 h (in vivo; [11]): 6.8 ± 3.2 %ID/g
Blood clearance T1/2 [1]: 14 ± 1 min
Renal clearance T1/2 [1]: 10 ± 3 min
Tumour clearance T1/2 [1]: 132 ± 54 min
Blood clearance T1/2 (H69 tumour-bearing mice): 11 ± 2 min
Tumour clearance T1/2 (H69 tumour-bearing mice): 138 ± 66 min
Tumour uptake T1/2 (H69 tumour-bearing mice): 7 ± 2 min
Tumour response ([2]; H69 large tumours): partial response
Mean time to reach a tumour volume of 2000 mm^3 ([2]; H69 large tumours (~200 mm^3)): 110 ± 19 days
Effect on tumour volume ([2]; H69 large tumours, cumulative injected activity 9.4 ± 0.7 MBq): Shrinkage of tumours was observed
Median survival ([2]; H69 large tumours): > 90 days
Mean time to reach a tumour volume of 2000 mm^3 ([2]; H69 small tumours (~50 mm^3)): 102 ± 19 days
Animals with partial response [2, 12]: eight
Animals with stable disease [2, 12]: two
Animals with no tumour regrowth until the end of the study at day 90 ([2]; H69 small tumours, n = 10 treated): two
Median survival ([2]; H69 small tumours): > 90 days
Tumour response ([3]; CA20948 large tumours): partial response
Mean time to reach a tumour volume of 2000 mm^3 ([3]; CA20948 large tumours (~200 mm^3)): 77 ± 25 days
Median survival ([3]; CA20948 large tumours): 70 days
Mean time to reach a tumour volume of 2000 mm^3 ([3]; CA20948 small tumours (~50 mm^3)): 76 ± 15 days
Animals with stable disease till the end of the study ([3]; CA20948 small tumours, after therapy): one
Animals with no tumour regrowth ([3]; CA20948 small tumours, n = 8 treated): one
Median survival ([3]; CA20948 small tumours): > 90 days
Kidney histology, control vs treated animals (kidney): no significant differences were observed
Maximum tolerated activity [4]: < 13.1 ± 1.2 MBq

From paper PMC4720616, “Influence of tumour size on the efficacy of targeted alpha therapy with ^213Bi-[DOTA^0,Tyr^3]-octreotate” (EJNMMI Research, 2016)
